{
  "source": "patent US20190106487A1",
  "about": "(Sanofi, published 2019)",
  "binders": {"B1": {"name": "P013.S.01.B.E04 (antibody, V domains shown)", "VH": "QSVEESGGRLVTPGTPLTLTCTVSGIDLNSNGINWVRQAPGKGLEWIGYIGAGDITYCASWAKGRFTISKTSSTTVDLKITSLTTEDTATYFCARWGPGALDLWGQGTLVTVSS", "VL": "AQVLTQTASSVSATVGGTVTISCQSSQSVYNNNYLSWYQQKPGQPPKLLIYKASTLASGVPLRFSGSGSGTQFTLTISGVQSDDAATYYCAGFYETTDVGFGGGTEVVVK", "notes": "rabbit monoclonal antibody; also called P013.A.00109.D07"}, "B2": {"name": "P013.S.02.B.G01 (antibody, V domains shown)", "VH": "QSVEESGGRLVTPGGSLTLTCKVSGFSLSDYDIYWVRQAPGKGLEWIGVIDIENSVYYPTWAKGRFTISKTSTTVDLKITSPTTEDTATYFCARGDYIMTLDLWGQGTLVTVSS", "VL": "AAVLTQTPSPVSAAVGGTVTISCQASQSVYKNNRLAWYQQKPGQPPKLLIYLASTLASGVPSRFKGSGSGTQFTLTISDLESDDAATYYCAGGYSTISENAFGGGTEVVVK", "notes": "rabbit monoclonal antibody; also called P013.A.00015.G07"}, "B3": {"name": "P013.S.01.B.E06 (antibody, V domains shown)", "VH": "QSLEESGGDLVKPGASLTLTCTASGFSFSSTYYMCWVRQAPGKGLEWIACIYAGSSGSTYYASWAKGRFTISKTSSTTVTLQMTSLTAADTATYFCARVDGSSSGSWDLWGPGTLVTVSS", "VL": "AIEMTQTPSSVSAAVGGTVTINCQASQNIYSNLAWYQQKPGQRPKLLIYAASLLASGVPSRFKGNGSGTEYTLTISDLESADAATYYCQGAVYSGNTEWAFGGGTEVVVK", "notes": "rabbit monoclonal antibody; also called P013.A.00030.F07"}, "B4": {"name": "P013.S.02.B.D04 (antibody, V domains shown)", "VH": "QSLEESGGDLVQPGGSLTLTCKASGFSFSASYWICWVRQAPGKGLEWIGCIYIGGGGRYYASWAKGRFTISKTSSTTVTLQMTSLTAADTATYFCARDPVTSGSDYVYDLWGPGTLVTVAS", "VL": "AYDMTQTPASVEVAVGGTVTIKCQASESISTWLAWYQQKPGQPPNLLIYRASTLASGVPSRFYGSGYGTEFTLTISGVESADAATYYCQQGYTVNNIDNVFGGGTEVVVK", "notes": "rabbit monoclonal antibody; also called P013.A.00086.A06"}},
  "data": [
    {"molecular_target": "T1, human IL-1RAcP on 293T/17-FR cells (human, UniProt Q9NPH3 21-570)", "T1 sequence (looked up)": "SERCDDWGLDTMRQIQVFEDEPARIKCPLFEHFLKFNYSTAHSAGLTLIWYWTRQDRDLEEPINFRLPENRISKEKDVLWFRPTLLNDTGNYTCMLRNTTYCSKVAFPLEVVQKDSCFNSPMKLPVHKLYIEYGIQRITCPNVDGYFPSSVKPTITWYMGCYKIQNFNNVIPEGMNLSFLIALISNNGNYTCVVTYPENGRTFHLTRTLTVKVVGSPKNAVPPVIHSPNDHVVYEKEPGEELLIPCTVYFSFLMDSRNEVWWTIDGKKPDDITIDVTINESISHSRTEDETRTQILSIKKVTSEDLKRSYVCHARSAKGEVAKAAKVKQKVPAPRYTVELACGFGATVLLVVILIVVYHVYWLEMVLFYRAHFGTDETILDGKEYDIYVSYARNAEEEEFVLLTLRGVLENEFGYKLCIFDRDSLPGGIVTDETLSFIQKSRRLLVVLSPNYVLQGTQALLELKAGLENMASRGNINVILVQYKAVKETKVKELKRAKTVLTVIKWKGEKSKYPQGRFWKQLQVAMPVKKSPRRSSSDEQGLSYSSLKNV", "test": "cell-based or functional assay", "units": {"functional reporter gene assay (% inhibition), 0.04 µg/mL mAb": "%", "functional reporter gene assay (% inhibition), 0.2 µg/mL mAb": "%", "functional reporter gene assay (% inhibition), 1 µg/mL mAb": "%", "functional reporter gene assay (% inhibition), 5 µg/mL mAb": "%", "primary supernatant functional assay (% inh.), NF-kB luciferase reporter": "%"}, "values": [
      {"binder": "B1", "functional reporter gene assay (% inhibition), 0.04 µg/mL mAb": 39, "functional reporter gene assay (% inhibition), 0.2 µg/mL mAb": 62, "functional reporter gene assay (% inhibition), 1 µg/mL mAb": 88, "functional reporter gene assay (% inhibition), 5 µg/mL mAb": 98, "primary supernatant functional assay (% inh.), NF-kB luciferase reporter": 88},
      {"binder": "B2", "functional reporter gene assay (% inhibition), 0.04 µg/mL mAb": 1, "functional reporter gene assay (% inhibition), 0.2 µg/mL mAb": 1, "functional reporter gene assay (% inhibition), 1 µg/mL mAb": 10, "functional reporter gene assay (% inhibition), 5 µg/mL mAb": -5, "primary supernatant functional assay (% inh.), NF-kB luciferase reporter": -36},
      {"binder": "B3", "functional reporter gene assay (% inhibition), 0.04 µg/mL mAb": 44, "functional reporter gene assay (% inhibition), 0.2 µg/mL mAb": 60, "functional reporter gene assay (% inhibition), 1 µg/mL mAb": 93, "functional reporter gene assay (% inhibition), 5 µg/mL mAb": 91, "primary supernatant functional assay (% inh.), NF-kB luciferase reporter": 72},
      {"binder": "B4", "functional reporter gene assay (% inhibition), 0.04 µg/mL mAb": 4, "functional reporter gene assay (% inhibition), 0.2 µg/mL mAb": 19, "functional reporter gene assay (% inhibition), 1 µg/mL mAb": 47, "functional reporter gene assay (% inhibition), 5 µg/mL mAb": 87, "primary supernatant functional assay (% inh.), NF-kB luciferase reporter": 88}
    ]},
    {"molecular_target": "T2, rhIL-1RAcP/Fc Chimera (human, UniProt Q9NPH3 21-359)", "T2 construct": "also called P013_03; P013-03", "T2 sequence (looked up)": "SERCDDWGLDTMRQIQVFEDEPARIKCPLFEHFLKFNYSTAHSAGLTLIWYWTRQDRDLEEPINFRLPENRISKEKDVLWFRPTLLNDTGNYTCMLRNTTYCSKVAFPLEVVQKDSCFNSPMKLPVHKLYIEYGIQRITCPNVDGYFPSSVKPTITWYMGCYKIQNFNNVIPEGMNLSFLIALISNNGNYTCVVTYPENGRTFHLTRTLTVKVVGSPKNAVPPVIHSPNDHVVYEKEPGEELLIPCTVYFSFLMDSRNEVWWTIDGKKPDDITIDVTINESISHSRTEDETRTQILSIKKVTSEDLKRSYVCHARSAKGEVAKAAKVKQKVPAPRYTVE", "test": "ELISA, recombinant purified mAb", "units": {"EC50": "µg/mL"}, "values": [
      {"binder": "B1", "EC50": 0.072},
      {"binder": "B3", "EC50": 0.447}
    ]},
    {"molecular_target": "T2, rhIL-1RAcP/Fc Chimera", "test": "ELISA, primary supernatant, coated hu-IL-1RAcP-Fc", "description": "Microtiter plates were coated IL-1RACP and/or IL12Rβ1 protein (recombinant Fc chimeric conjugates of human IL-1RACP or IL12Rβ1). After a blocking process, specific antibodies from B-cell supernatants bind to the targets and are then detected by a POD-labeled anti-rabbit IgG antibody. The IL12Rβ1 binding was used as a counterscreen. IL-1RACP protein was tagged with a linker, huFc and His like the IL12Rβ1 protein. Antibodies which bind to the tag were positive in both assays, whereas antigen specific antibodies just bound to IL-1RACP and not to IL12Rβ1.\n12.5 μL 0.5 μg/mL IL-1RACP protein in PBS was transferred to a microtiter plate, incubated and washed 3× with Wash Buffer. 90 μL Block Buffer was added to each well, incubated and washed. 12.5 μl Standard Antibody (rabbit mAb against IL-1RAcP, anti IL12Rbeta1 antibody: IL-12Rbeta1 antibody; GeneTex; Cat. No. GTX103917) or sample diluted in ELISA buffer was added, incubated and washed. 12.5 μl 1:5000 POD-Antibody (Anti-rabbit IgG, peroxidase-linked species-specific Fab2 fragment (from donkey) (ECL); assay dilution: 1:5000) in Elisa Buffer was added, incubated and washed. 15 μl TMB was added and 15 μl HCl was added after sufficient development. Absorbance (Optical Density O.D.) was read at 450 nm/620 nm.", "units": {"hu-IL1RaP ELISA (OD)": "OD"}, "values": [
      {"binder": "B1", "hu-IL1RaP ELISA (OD)": 3.3},
      {"binder": "B2", "hu-IL1RaP ELISA (OD)": 2.2},
      {"binder": "B3", "hu-IL1RaP ELISA (OD)": 3.4},
      {"binder": "B4", "hu-IL1RaP ELISA (OD)": 3.6}
    ]},
    {"molecular_target": "T3, mIL1RAcP-Fc (murine, UniProt Q61730 21-359)", "T3 construct": "also called P013_04; P013-04", "T3 sequence (looked up)": "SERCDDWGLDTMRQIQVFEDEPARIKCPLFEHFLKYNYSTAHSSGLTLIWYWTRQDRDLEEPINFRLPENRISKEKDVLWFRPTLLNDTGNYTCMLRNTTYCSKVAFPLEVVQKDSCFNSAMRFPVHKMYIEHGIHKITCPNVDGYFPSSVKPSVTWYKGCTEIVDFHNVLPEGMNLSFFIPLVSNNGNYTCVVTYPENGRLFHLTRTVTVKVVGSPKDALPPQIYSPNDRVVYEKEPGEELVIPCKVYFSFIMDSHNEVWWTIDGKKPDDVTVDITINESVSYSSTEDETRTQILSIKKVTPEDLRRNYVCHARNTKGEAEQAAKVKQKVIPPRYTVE", "test": "ELISA, primary supernatant, coated mu-IL-1RAcP-Fc", "units": {"mu-IL1RaP ELISA (OD)": "OD"}, "values": [
      {"binder": "B2", "mu-IL1RaP ELISA (OD)": 0.4},
      {"binder": "B4", "mu-IL1RaP ELISA (OD)": 0}
    ]}
  ]
}
